From publication PMC7101311 (Nature Communications, 2020)

B4: PCNA (proliferative cell nuclear antigen) from Pyrococcus abyssi (natural protein, UniProt Q9UYX8 1-249, looked up)
chain: MPFEIVFEGAKEFAQLIETASRLIDEAAFKVTEEGISMRAMDPSRVVLIDLNLPASIFSKYEVDGEETIGVNMDHLKKVLKRGKAKETLILRKGEENFLEISLQGTATRTFKLPLIDVEEIEVDLPELPFTAKVVILGDVIKEAVKDASLVSDSMKFIAKENEFTMRAEGETQEVEVKLTLEDEGLLDIEVQEETKSAYGISYLSDMVKGLGKADEVTIKFGNEMPMQMEYYIRDEGRLIFLLAPRVEE
notes: PCNA, Pyrococcus abyssi; open reading frame optimized and synthesized, in pET28-a(+) with a thrombin-cleavable N-terminal 6xHis tag; PCNA as used in cryo-EM, crystallisation, BLI (analyte) and primer extension; also called sliding clamp; source: E. coli BL21-CodonPlus (DE3)-RIPL, purified (heat step, HisTrap, heparin, size exclusion)

Columns and labels:
[1] = target: primase (Saccharomyces cerevisiae) (UniProt P10363); conditions: cited from earlier work
[2] = target: B4; experiment: BLI; Octet RED384; His-MBP-fused DP2 constructs captured on Ni-NTA biosensors (1.5 nm); PCNA or PriS-PriL(1–210) 31.25-2000 nM, 300 s, 25 °C, buffer E (20 mM Na-Hepes pH 8, 0.15 M NaCl) with 0.2 mg/mL BSA; steady-state fit; conditions: both partners purified
[3] = target: T1, His6-tagged PCNA from Pyrococcus abyssi (Pyrococcus abyssi, UniProt Q9UYX8 1-249); experiment: SPR; Biacore T200; ~2000 RU His-tagged PCNA and PriS-PriL(1–210) on an NTA chip, His-tagged MBP as reference; cPIP peptide 0-200 µM, 30 s at 30 µL/min, 25 °C, buffer E with 100 µM EDTA; steady-state fit; conditions: both partners purified
T1 construct: PCNA, Pyrococcus abyssi; open reading frame optimized and synthesized, in pET28-a(+) with a thrombin-cleavable N-terminal 6xHis tag; PCNA with its His tag kept, captured on the NTA chip for SPR; also called His-tagged PCNA; source: E. coli BL21-CodonPlus (DE3)-RIPL, purified (heat step, HisTrap, heparin, size exclusion); not shown: His6, N-terminal, kept
T1 sequence (looked up): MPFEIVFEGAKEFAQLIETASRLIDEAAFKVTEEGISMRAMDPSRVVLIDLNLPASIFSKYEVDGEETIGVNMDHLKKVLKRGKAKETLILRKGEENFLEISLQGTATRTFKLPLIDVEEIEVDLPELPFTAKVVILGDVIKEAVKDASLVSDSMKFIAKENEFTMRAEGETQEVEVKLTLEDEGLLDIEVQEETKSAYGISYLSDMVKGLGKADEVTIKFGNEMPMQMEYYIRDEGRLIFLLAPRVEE

[4] = target: PolD DP1 (small subunit, exonuclease-deficient);PolD DP2 (large catalytic subunit);PCNA (Pyrococcus abyssi;Pyrococcus …, UniProt Q9V2F3;PDB:6T8H_3;Q9UYX8 1-619;1-1275;1-249, H451A||); experiment: cryo-EM structure (3.77 A); 2 mM Mg-acetate, 0.1 mM dAMPCPP (incoming nucleotide not seen in the map); Cryo-EM sample: 0.4 uM PolD, 1.2 uM PCNA, 0.7 uM DNA, 20 mM Na-HEPES pH 8, 0.01 mM NaCl (so in the source), 2 mM Mg-acetate, 0.1 mM dAMPCPP, 20 min at 4 C; conditions: protein: recombinant;recombinant;recombinant; copies: 1;1;3; 5' overhang 7 nt on template strand (18 bp duplex)
[5] = target: the molecule itself; experiment: cryo-EM structure; 0.4 µM PolD (DP1 H451A), 1.2 µM PCNA, 0.7 µM primed DNA duplex (18-mer primer, 7-nt overhang), 0.1 mM dAMPCPP, buffer F (20 mM Na-Hepes pH 8, 0.01 mM NaCl, 2 mM Mg-acetate), 20 min at 4 °C; single-particle cryo-EM, 3.77 Å

primase (Saccharomyces cerevisiae), sequence (P10363 whole entry, chain 1 of 2, the tested form may be a part): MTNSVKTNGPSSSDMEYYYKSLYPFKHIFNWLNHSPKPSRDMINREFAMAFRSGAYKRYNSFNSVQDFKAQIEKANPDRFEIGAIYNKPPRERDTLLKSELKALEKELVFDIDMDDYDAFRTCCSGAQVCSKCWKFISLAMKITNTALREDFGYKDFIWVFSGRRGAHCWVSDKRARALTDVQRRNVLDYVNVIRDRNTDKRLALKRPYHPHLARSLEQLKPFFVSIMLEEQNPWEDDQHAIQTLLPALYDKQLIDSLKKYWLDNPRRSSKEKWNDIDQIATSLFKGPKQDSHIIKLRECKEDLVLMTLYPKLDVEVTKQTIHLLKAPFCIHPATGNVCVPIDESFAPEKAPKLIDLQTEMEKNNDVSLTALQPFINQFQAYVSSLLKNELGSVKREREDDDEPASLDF
primase (Saccharomyces cerevisiae), sequence (P20457 whole entry, chain 2 of 2, further chain, the tested form may be a part): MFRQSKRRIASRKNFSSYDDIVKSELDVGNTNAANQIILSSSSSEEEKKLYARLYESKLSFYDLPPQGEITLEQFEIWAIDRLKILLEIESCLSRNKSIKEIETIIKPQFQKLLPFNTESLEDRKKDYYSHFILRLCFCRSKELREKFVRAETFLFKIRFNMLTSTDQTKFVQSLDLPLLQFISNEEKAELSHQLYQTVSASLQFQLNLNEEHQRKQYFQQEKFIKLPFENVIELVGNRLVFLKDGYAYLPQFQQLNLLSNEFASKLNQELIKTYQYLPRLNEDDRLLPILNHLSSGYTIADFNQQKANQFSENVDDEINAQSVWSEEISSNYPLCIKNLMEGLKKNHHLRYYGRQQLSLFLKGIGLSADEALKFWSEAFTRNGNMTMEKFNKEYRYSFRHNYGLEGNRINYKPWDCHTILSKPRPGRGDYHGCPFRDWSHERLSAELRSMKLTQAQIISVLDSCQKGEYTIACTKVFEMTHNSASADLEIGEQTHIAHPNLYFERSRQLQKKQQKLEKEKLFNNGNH
PolD DP1 (small subunit, exonuclease-deficient);PolD DP2 (large catalytic subunit);PCNA, sequence (Q9V2F3 whole entry H451A, one chain of several): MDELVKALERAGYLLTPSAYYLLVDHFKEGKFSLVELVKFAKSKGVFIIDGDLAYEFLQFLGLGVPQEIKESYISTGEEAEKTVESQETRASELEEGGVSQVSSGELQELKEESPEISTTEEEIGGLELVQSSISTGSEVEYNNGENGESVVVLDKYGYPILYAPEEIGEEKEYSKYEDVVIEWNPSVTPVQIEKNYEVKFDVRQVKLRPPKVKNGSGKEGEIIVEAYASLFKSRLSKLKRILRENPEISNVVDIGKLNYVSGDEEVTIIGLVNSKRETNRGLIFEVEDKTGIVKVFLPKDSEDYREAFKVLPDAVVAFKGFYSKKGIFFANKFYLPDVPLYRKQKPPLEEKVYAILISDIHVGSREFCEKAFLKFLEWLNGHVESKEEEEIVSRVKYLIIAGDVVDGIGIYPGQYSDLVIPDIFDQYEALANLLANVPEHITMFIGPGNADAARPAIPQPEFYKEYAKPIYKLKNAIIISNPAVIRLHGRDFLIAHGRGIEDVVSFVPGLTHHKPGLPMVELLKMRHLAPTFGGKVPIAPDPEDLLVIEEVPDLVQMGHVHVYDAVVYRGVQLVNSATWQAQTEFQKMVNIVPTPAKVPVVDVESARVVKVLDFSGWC

Molecule: DNA polymerase alpha C-terminus (from UniProt P13382)
- Kd [1]: 245 nM

B1: MBP–iPIP-cPIP fusion (DP2:1196–1270) (domain or fragment, Pyrococcus abyssi, UniProt Q9V2F4 1381-1455, looked up)
chain: ETQLTLIVNPNDICQRLVMARTGEVNKSGLLENLSNGSKKTEKAEKAEKPRKKSDEKPKKKRVISLEEFFSRKSK
notes: C-terminal region of PolD DP2, Pyrococcus abyssi, residues 1196-1270, holding iPIP and cPIP; pIVEX His-MBP-TEV plasmid; TEV-cleavable N-terminal His6-MBP tag, kept for capture on Ni-NTA biosensors; also called His-MBP-fused DP2 construct; source: E. coli BL21-CodonPlus (DE3)-RIPL, purified (HisTrap, heparin, size exclusion; no heat step); not shown: His6, N-terminal, kept; MBP, N-terminal, kept
- Kd [2]: 472 ± 120 nM

B2: cPIP peptide (12 amino-acid peptide mimicking the DP2 C-terminal PIP-box) (peptide)
peptide: KKRVISLEEFFS
notes: C-terminal PIP-box (cPIP) of PolD DP2, Pyrococcus abyssi; limits worked out from the printed residues V1258, I1259, L1261, F1264; also called canonical PIP-box; source: synthetic peptide (Smart Bioscience)
- Kd [3]: 49 ± 4 µM

B3: primer-template duplex (18-mer primer / 25-mer template) (dsDNA)
DNA 1: CGCCGGGCCGAGCCGTGC
DNA 2: AGGTCGTGCACGGCTCGGCCCGGCG
- binding result [4]: binds

Molecule: B4
- stoichiometry N [5]: 3
